From PMC7754295
Each block holds one substance with its values, some of them ahead of it.

How the values were obtained:
Test in all cases: native gel or EMSA
[1] = molecular target: NpHV1‐GFP (Nicoletia phytophila voltage‐gated proton channel 1 with GFP) (Nicoletia phytophila)
[2] = molecular target: NpHV1‐GFP with C‐terminal StrepTagII (Nicoletia phytophila)
[3] = molecular target: NpHV1‐GFP with C‐terminal deca‐His Tag (Nicoletia phytophila)

stoichiometry N [1]: 2
Substance: NpHV1‐GFP (Nicoletia phytophila voltage‐gated proton channel 1 with GFP) (natural protein)

stoichiometry N [2]: 2
Substance: NpHV1‐GFP with C‐terminal StrepTagII (natural protein)

stoichiometry N [3]: 2
Substance: NpHV1‐GFP with C‐terminal deca‐His Tag (natural protein)
